Data reported in publication PMC13544220, “Glycemic and bodyweight effects of GIPR coding variation reflect differences in surface expression and intrinsic functional impairment” (Science Advances, 2026).

Experiments:
Type in all cases: cell-based, human
[1] = system: wild-type and variant SNAP-GIPR; test: Surface SNAP-GIPR expression (SNAP-tag labelling) in INS-1 cells; conditions: Fig 4G; Mean
Summary of the method: (§1)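 Surface GIPR is quantified from wide-field images after labelling intact transfected cells with a membrane-impermeant SNAP probe at 500 nM for 10 min at room temperature. Specific signal, corrected for nontransfected cells, is normalized to the experiment-wide average or to wild-type.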

[2] = system: wild-type and variant SNAP-GIPR; test: Constitutive and agonist-mediated internalization, reversible SNAP-tag labelling, AD293 cells; parameters: key to Internalisation, Vehicle / Internalisation, +GIP / Internalisation, GIP-only: % internalization: residual fluorescence after Mesna vs pre-Mesna; Surface expression: unit not given here; conditions: Mean
Summary of the method: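 % internalization = residual specific fluorescence after Mesna / pre-Mesna value. Imaging in TNE buffer pH 8.6; second image 10 min post-Mesna.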

[3] = system: wild-type and variant SNAP-GIPR; test: Single-concentration GIP cAMP response by HTRF in INS-1 cells; conditions: Fig S3E, mean
Procedure: (§2) All variants were tested in parallel on each occasion to control for transfection efficiency differences between experiments.

[4] = system: wild-type and variant SNAP-GIPR; test: Surface SNAP-GIPR expression (SNAP-tag labelling) in AD293 cells; conditions: for AD293 Surface: Fig S3E, mean; for Surface SNAP-GIPR expression: sheet Fig 1C;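 as to all read-outs here: scaled to the experimental average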
Summary of the method: as §1

[5] = system: wild-type and variant SNAP-GIPR; test: cADDis cAMP imaging in AD293 cells, ensemble, expression-matched and per decile; conditions: Fig S3F, cADDis, mean
Summary of the method: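 Transient SNAP-GIPR plus cADDis BacMam in AD293; 24 h; SNAP-Surface AF647 500 nM, 10 min RT; wide-field 10X imaging at 37°C in KRBH/6 mM glucose/0.1% BSA. Cells failing IBMX/FSK response criteria excluded.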

[6] = system: wild-type and variant SNAP-GIPR; test: Single-concentration GIP cAMP response by HTRF in AD293 cells; conditions: Fig S3F, HTRF, mean;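 also: ratio to experiment-wide average response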
Procedure: as §2

B1: E288G (protein)
chain: RAETGSKGQTAGELYQRWERYRRECQETLAAAEPPSGLACNGSFDMYVCWDYAAPNATARASCPWYLPWHHHVAAGFVLRQCGSDGQWGLWRDHTQCENPEKNEAFLDQRLILERLQVMYTVGYSLSLATLLLALLILSLFRRLHCTRNYIHINLFTSFMLRAAAILSRDRLLPRPGPYLGDQALALWNQALAACRTAQIVTQYCVGANYTWLLVEGVYLHSLLVLVGGSEEGHFRYYLLLGWGAPALFVIPWVIVRYLYENTQCWGRNEVKAIWWIIRTPILMTILINFLIFIRILGILLSKLRTRQMRCRDYRLRLARSTLTLVPLLGVHEVVFAPVTEEQARGALRFAKLGFEIFLSSFQGFLVSVLYCFINKEVQSEIRRGWHHCRLRRSLGEEQRQLPERAFRALPSGSGPGEVPTSRGLSSGTLPGPGNEASRELESYC
B1 was tested, and the Surface expression [1] was 0.2232, the “+GIP internalisation (100 nM)” value ([2]; Fig 4E, GIP 100 nM) was 0.06598 and the “GIP-specific internalisation (100 nM)” value ([2]; Fig 4E, GIP 100 nM) was 0.002144. For the same molecule, the “Constitutive internalisation (100 nM)” value ([2]; Fig 4E) was 0.06383, the Surface expression ([2]; Fig 4E) was 0.1099 and the “Internalisation, +GIP” value ([2]; Fig S4C, AD293) was 59.0204. The “Internalisation, GIP-only” value ([2]; Fig S4C, AD293) was 2.581, the “Internalisation, Vehicle” value ([2]; Fig S4C, AD293) was 56.4393 and the “INS-1 cAMP (100 nM)” value [3] was 0.3027. The “AD293 Surface” value ([4]; column repeated, paired with cAMP 100 nM) was 0.1748, the “AD293 Surface” value ([4]; paired with cAMP 100 pM) was 0.1748 and the “Surface SNAP-GIPR expression” value ([4]; replicate 1) was 0.1869. For the same molecule, the “Surface SNAP-GIPR expression” value ([4]; replicate 2) was 0.267, the “Surface SNAP-GIPR expression” value ([4]; replicate 3) was 0.08361 and the “Surface SNAP-GIPR expression” value ([4]; replicate 4) was 0.1519. For the same molecule, the “Surface SNAP-GIPR expression” value ([4]; replicate 5) was 0.1987, the “Surface SNAP-GIPR expression” value ([4]; replicate 6) was 0.07439 and the “Surface SNAP-GIPR expression” value ([4]; replicate 7) was 0.7465. The “Surface SNAP-GIPR expression” value ([4]; replicate 8) was 0.3261, the “Surface SNAP-GIPR expression” value ([4]; replicate 9) was 0.1689 and the “Surface SNAP-GIPR expression” value ([4]; replicate 10) was 0.2273. The “Surface SNAP-GIPR expression” value ([4]; replicate 11) was 0.2845, the “Surface SNAP-GIPR expression” value ([4]; replicate 12) was 0.2606 and the “Surface SNAP-GIPR expression” value ([4]; replicate 13) was 0.07673. The “Surface SNAP-GIPR expression” value ([4]; replicate 14) was 0.0817, the “Surface SNAP-GIPR expression” value ([4]; replicate 15) was 0.1221 and the “Surface SNAP-GIPR expression” value ([4]; replicate 16) was 0.1487. For the same molecule, the “Surface SNAP-GIPR expression” value ([4]; replicate 17) was 0.2042, the “Surface SNAP-GIPR expression” value ([4]; replicate 18) was 0.1937 and the “Surface SNAP-GIPR expression” value ([4]; replicate 19) was 0.1495. The “Surface SNAP-GIPR expression” value ([4]; replicate 20) was 0.1825, the “Surface SNAP-GIPR expression” value ([4]; replicate 21) was 0.2069 and the “Surface SNAP-GIPR expression” value ([4]; replicate 22) was 0.1788. For the same molecule, the “Surface SNAP-GIPR expression” value ([4]; replicate 23) was 0.167, the “Surface SNAP-GIPR expression” value ([4]; replicate 24) was 0.1096 and the “Surface SNAP-GIPR expression” value ([4]; replicate 25) was 0.2053. The “Surface SNAP-GIPR expression” value ([4]; replicate 26) was 0.1578, the “Surface SNAP-GIPR expression” value ([4]; replicate 27) was 0.0991 and the “Surface SNAP-GIPR expression” value ([4]; replicate 28) was 0.1213. The “Surface SNAP-GIPR expression” value ([4]; replicate 29) was 0.1325, the “Surface SNAP-GIPR expression” value ([4]; replicate 30) was 0.1696 and the “Surface SNAP-GIPR expression” value ([4]; replicate 31) was 0.159. For the same molecule, the “Surface SNAP-GIPR expression” value ([4]; replicate 32) was 0.181, the “Surface SNAP-GIPR expression” value ([4]; replicate 33) was 0.1299 and the “Surface SNAP-GIPR expression” value ([4]; replicate 34) was 0.1533. For the same molecule, the “Surface SNAP-GIPR expression” value ([4]; replicate 35) was 0.1527, the “Surface SNAP-GIPR expression” value ([4]; replicate 36) was 0.05767 and the “Surface SNAP-GIPR expression” value ([4]; replicate 37) was 0.09894. The “Surface SNAP-GIPR expression” value ([4]; replicate 38) was 0.1179, the “Surface SNAP-GIPR expression” value ([4]; replicate 39) was 0.124 and the “Surface SNAP-GIPR expression” value ([4]; replicate 40) was 0.1489. For the same molecule, the “Surface SNAP-GIPR expression” value ([4]; replicate 41) was 0.1584, the “AD293 100 pM cADDis” value ([5]; AD293, 100 pM) was 0.802 and the “AD293 100 nM cADDis” value ([5]; AD293, 100 nM) was 24.23. The “AD293 100 pM HTRF” value ([6]; AD293, 100 pM) was 0.007216 and the “AD293 100 nM HTRF” value ([6]; AD293, 100 nM) was 0.3648.
